According to article PMC8888459 (2022):

Assays:
[1] = target: T1, Yah1-GST fusion protein (S. cerevisiae, UniProt Q12184 17-172); assay: BLI; anaerobic, reduced Yah1; kd1 of 2:1 fit
T1 chain: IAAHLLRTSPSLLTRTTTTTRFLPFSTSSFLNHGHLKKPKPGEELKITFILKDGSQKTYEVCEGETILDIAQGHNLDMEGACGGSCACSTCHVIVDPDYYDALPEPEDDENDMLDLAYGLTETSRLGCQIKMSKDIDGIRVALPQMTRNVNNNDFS

[2] = target: T1, Yah1-GST fusion protein; assay: BLI; KD2 of 2:1 heterogeneous ligand fit (54%), second site
[3] = target: T1, Yah1-GST fusion protein; assay: BLI; anaerobic, reduced Yah1 (Fig. 6C); kd1 of 2:1 fit
[4] = target: T1, Yah1-GST fusion protein; assay: BLI; anaerobic, reduced Yah1 (Fig. 6C); KD2 of 2:1 fit (60%), second site
[5] = target: T1, Yah1-GST fusion protein; assay: BLI; anaerobic, reduced Yah1; KD2 of 2:1 fit (39%), second site
[6] = target: T1, Yah1-GST fusion protein; assay: BLI; KD1 of 2:1 heterogeneous ligand fit (46%)
[7] = target: T1, Yah1-GST fusion protein; assay: BLI; anaerobic, reduced Yah1; kd2 of 2:1 fit, second site
[8] = target: T1, Yah1-GST fusion protein; assay: BLI; anaerobic, reduced Yah1; KD1 of 2:1 fit (61%)
[9] = target: T1, Yah1-GST fusion protein; assay: BLI; anaerobic, reduced Yah1 (Fig. 6C); KD1 of 2:1 fit (40%)
[10] = target: T1, Yah1-GST fusion protein; assay: BLI; anaerobic, reduced Yah1 (Fig. 6C); kd2 of 2:1 fit, second site
[11] = target: T1, Yah1-GST fusion protein; assay: BLI; kd2 of 2:1 fit, second site
[12] = target: T1, Yah1-GST fusion protein; assay: BLI; kd1 of 2:1 fit

B1: NIA complex (Nfs1–Isd11–ACPEc) (complex)
chain 1: PAAGVKLDDNFSLETHTDIQAAAKAQASARASASGTTPDAVVASGSTAMSHAYQENTGFGTRPIYLDMQATTPTDPRVLDTMLKFYTGLYGNPHSNTHSYGWETNTAVENARAHVAKMINADPKEIIFTSGATESNNMVLKGVPRFYKKTKKHIITTRTEHKCVLEAARAMMKEGFEVTFLNVDDQGLIDLKELEDAIRPDTCLVSVMAVNNEIGVIQPIKEIGAICRKNKIYFHTDAAQAYGKIHIDVNEMNIDLLSISSHKIYGPKGIGAIYVRRRPRVRLEPLLSGGGQERGLRSGTLAPPLVAGFGEAARLMKKEFDNDQAHIKRLSDKLVKGLLSAEHTTLNGSPDHRYPGCVNVSFAYVEGESLLMALRDIALSSGSACTSASLEPSYVLHALGKDDALAHSSIRFGIGRFSTEEEVDYVVKAVSDRVKFLRELSPLWEMVQEGIDLNSIKWSGH
chain 2: MPGFTAPTRRQVLSLYKEFIKNANQFNNYNFREYFLSKTRTTFRKNMNQQDPKVLMNLFKEAKNDLGVLKRQSVISQMYTFDRLVVEPLQGRKH
chain 3: MSTIEERVKKIIGEQLGVKQEEVTNNASFVEDLGADSLDTVELVMALEEEFDTEIPDEEAEKITTVQAAIDYINGHQA
koff [1]: 3.88e-07 s⁻¹ | Kd [2]: 280 nM | koff [3]: 4.91e-07 s⁻¹ | Kd [4]: 65.8 nM | Kd [5]: 114 nM | Kd [6]: 0.0966 nM | koff [7]: 0.00204 s⁻¹ | Kd [8]: 0.82 nM | Kd [9]: 0.446 nM | koff [10]: 0.00248 s⁻¹ | koff [11]: 0.0267 s⁻¹ | koff [12]: 3.54e-07 s⁻¹
